# According to US20230125550A1 (ARCELLX, published 2023):
# T1: AFP p26 (human, UniProt P02771 381-609)
# T1 construct: The construct used is not described
# T1 sequence: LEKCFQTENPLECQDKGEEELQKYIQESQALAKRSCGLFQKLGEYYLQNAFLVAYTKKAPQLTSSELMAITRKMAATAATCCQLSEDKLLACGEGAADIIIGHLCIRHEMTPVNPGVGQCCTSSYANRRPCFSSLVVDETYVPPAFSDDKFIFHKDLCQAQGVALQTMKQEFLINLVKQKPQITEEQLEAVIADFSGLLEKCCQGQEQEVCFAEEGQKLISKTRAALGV
# Target: T1, AFP p26
# Assay: phage ELISA, A450 target/A450 IgG1-Fc
# Outline: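 Individual phagemid colonies picked from panning output were rescued in 96-well format using VCSM13 helper phage. Plates received 1.3 microg/ml goat anti-human IgG1-Fc antibody, followed by 5 nM recombinant human target or IgG1-Fc, and then 50 microl of phage diluted 5× in ELISA blocking buffer. An HRP-conjugated anti-M13 antibody detected binding at 450 nm. For each clone, the ELISA ratio is the absorbance with target divided by that with IgG1-Fc, averaged over every screened well containing the clone.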
row,Binder,ELISA_avg [ratio]
1,SEQ ID NO 847 (designed binder) MGSWWVFKKTLAEIKWTLEALGGSEAELAYFEAEIAFFEFILQQYKGKGNPEVEALRKEAAAIRDELQAYRHN,18.6
2,SEQ ID NO 845 (designed binder) MGSWYLFKTELAAIKYRLEALGGSEAELASFEYEIAWFEHILQFYKGKGNPEVEALRKEAAAIRDELQAYRHN,20.1
3,SEQ ID NO 855 (designed binder) MGSWTHFKEDLAHIKDRLEALGGSEAELAAFELDIAWFEFMLQYYKGKGNPEVEALRKEAAAIRDELQAYRHN,30.4
4,SEQ ID NO 857 (designed binder) MGSWYTFKGSLAEIKNRLEALGGSEAELAMFESDIAWFEFMLQFYKGKGNPEVEALRKEAAAIRDELQAYRHN,32.3
5,SEQ ID NO 862 (designed binder) MGSWSIFKQDLADIKDSLEALGGSEAELAMFEMDIAWFEHTLQYYKGKGNPEVEALRKEAAAIRDELQAYRHN,16.6
6,SEQ ID NO 850 (designed binder) MGSWIIFKTDLARIKNYLEALGGSEAELATFERDIAWFEFMLQIYKGKGNPEVEALRKEAAAIRDELQAYRHN,16.7
7,SEQ ID NO 849 (designed binder) MGSWVYFKHRLAEIKDQLEALGGSEAELAEFETDIAWFEWMLQYYKGKGNPEVEALRKEAAAIRDELQAYRHN,11.1
8,SEQ ID NO 859 (designed binder) MGSWVLFKQDLAMIKQRLEALGGSEAELAMFEYDIAWFEHMLQYYKGKGNPEVEALRKEAAAIRDELQAYRHN,29.7
9,SEQ ID NO 854 (designed binder) MGSWFVFKEDLAGIKFILEALGGSEAELAMFETDIAWFEYMLQYYKGKGNPEVEALRKEAAAIRDELQAYRHN,14.2
10,SEQ ID NO 851 (designed binder) MGSWMHFKQDLAEIKGYLEALGGSEAELAIFEMDIAWFEYMLQYYKGKGNPEVEALRKEAAAIRDELQAYRHN,18.9
11,SEQ ID NO 856 (designed binder) MGSWYYFKERLAAIKDRLEALGGSEAELAIFEADIAWFEFMLQYYKGKGNPEVEALRKEAAAIRDELQAYRHN,31.5
12,SEQ ID NO 852 (designed binder) MGSWQIFKQDLAAIKDYLEALGGSEAELAIFEFDIAWFEHMLQWYKGKGNPEVEALRKEAAAIRDELQAYRHN,17.4
13,SEQ ID NO 839 (designed binder) MGSWTLFKWDLAFIKWQLEALGGSEAELAWFEYEIAAFEDSLQNYKGKGNPEVEALRKEAAAIRDELQAYRHN,12.1
14,SEQ ID NO 837 (designed binder) MGSWVYFKAHLAFIKWELEALGGSEAELANFESTIAEFEKYLQVYKGKGNPEVEALRKEAAAIRDELQAYRHN,20.8
15,SEQ ID NO 842 (designed binder) MGSWYIFKSELAWIKWYLEALGGSEAELANFEVEIATFETWLQGYKGKGNPEVEALRKEAAAIRDELQAYRHN,29.6
16,SEQ ID NO 821 (designed binder) MGSWFYFKYELAWIKHWLEALGGSEAELASFETHIAFFEHQLQYYKGKGNPEVEALRKEAAAIRDELQAYRHN,13.7
17,SEQ ID NO 843 (designed binder) MGSWYIFKQELASIKLSLEALGGSEAELAHFEAEIAWFEWWLQWYKGKGNPEVEALRKEAAAIRDELQAYRHN,19.4
18,SEQ ID NO 836 (designed binder) MGSWYLFKNELAWIKWRLEALGGSEAELADFEMVIAMFEDHLQEYKGKGNPEVEALRKEAAAIRDELQAYRHN,31.1
19,SEQ ID NO 825 (designed binder) MGSWVLFKDYLADIKHYLEALGGSEAELANFEHLIANFEGDLQTYKGKGNPEVEALRKEAAAIRDELQAYRHN,13.8
20,SEQ ID NO 838 (designed binder) MGSWMYFKSHLAWIKWELEALGGSEAELAFFEDNIAQFEYWLQLYKGKGNPEVEALRKEAAAIRDELQAYRHN,19.8
21,SEQ ID NO 829 (designed binder) MGSWVLFKQELAWIKWLLEALGGSEAELAAFEEQIARFEHDLQKYKGKGNPEVEALRKEAAAIRDELQAYRHN,29.5
22,SEQ ID NO 831 (designed binder) MGSWFLFKSELAWIKWRLEALGGSEAELAYFEYQIAEFEFWLQSYKGKGNPEVEALRKEAAAIRDELQAYRHN,25.8
23,SEQ ID NO 833 (designed binder) MGSWLLFKSDLAWIKWRLEALGGSEAELAEFEESIAMFEHWLQEYKGKGNPEVEALRKEAAAIRDELQAYRHN,33.3
24,SEQ ID NO 834 (designed binder) MGSWLYFKSDLAWIKWRLEALGGSEAELADFEEAIAEFEQALQIYKGKGNPEVEALRKEAAAIRDELQAYRHN,21.2

# Further lines, results first:
row,ELISA_avg [ratio],Binder
1,25.6,SEQ ID NO 864 (designed binder) MGSWSIFKDDLAVIKERLEALGGSEAELAHFEQDIAWFEHLLQYYKGKGNPEVEALRKEAAAIRDELQAYRHN
2,18.6,SEQ ID NO 853 (designed binder) MGSWLAFKEDLAHIKSILEALGGSEAELAEFEHDIAWFEYMLQYYKGKGNPEVEALRKEAAAIRDELQAYRHN
3,22.1,SEQ ID NO 848 (designed binder) MGSWVYFKDHLAEIKSQLEALGGSEAELALFEYDIAWFEFILQYYKGKGNPEVEALRKEAAAIRDELQAYRHN
4,30.4,SEQ ID NO 860 (designed binder) MGSWVEFKRDLANIKQRLEALGGSEAELAQFEMQIAWFEHTLQYYKGKGNPEVEALRKEAAAIRDELQAYRHN
5,11.6,SEQ ID NO 861 (designed binder) MGSWSYFKEDLANIKSSLEALGGSEAELAWFESSIAWFEHTLQYYKGKGNPEVEALRKEAAAIRDELQAYRHN
6,11.4,SEQ ID NO 823 (designed binder) MGSWAYFKGQLAYIKSGLEALGGSEAELAYFELRIAYFEHWLQNYKGKGNPEVEALRKEAAAIRDELQAYRHN
7,23.3,SEQ ID NO 840 (designed binder) MGSWILFKEDLAFIKWQLEALGGSEAELAWFETTIANFESDLQKYKGKGNPEVEALRKEAAAIRDELQAYRHN
8,30.1,SEQ ID NO 841 (designed binder) MGSWYFFKSRLAYIKVYLEALGGSEAELAGFEWEIAHFEEWLQRYKGKGNPEVEALRKEAAAIRDELQAYRHN
9,18.1,SEQ ID NO 827 (designed binder) MGSWEHFKVELAGIKAYLEALGGSEAELALFEWAIADFESILQDYKGKGNPEVEALRKEAAAIRDELQAYRHN
10,15.9,SEQ ID NO 828 (designed binder) MGSWIYFKDELAGIKKYLEALGGSEAELAMFEVAIADFEAILQKYKGKGNPEVEALRKEAAAIRDELQAYRHN
11,19.2,SEQ ID NO 824 (designed binder) MGSWENFKDTLAWIKEYLEALGGSEAELAGFEHRIAIFEHYLQYYKGKGNPEVEALRKEAAAIRDELQAYRHN
12,31.5,SEQ ID NO 822 (designed binder) MGSWADFKWTLAYIKHRLEALGGSEAELAFFEMEIAYFEQSLQNYKGKGNPEVEALRKEAAAIRDELQAYRHN
13,21.5,SEQ ID NO 846 (designed binder) MGSWYWFKYELAEIKWHLEALGGSEAELAHFEHSIAVFESQLQQYKGKGNPEVEALRKEAAAIRDELQAYRHN
14,23.4,SEQ ID NO 835 (designed binder) MGSWKLFKYELAWIKWRLEALGGSEAELADFEASIAQFEKYLQTYKGKGNPEVEALRKEAAAIRDELQAYRHN
15,20.5,SEQ ID NO 844 (designed binder) MGSWVRFKTELAYIKESLEALGGSEAELAMFESEIAIFEHSLQTYKGKGNPEVEALRKEAAAIRDELQAYRHN
16,25.7,SEQ ID NO 832 (designed binder) MGSWLLFKSELAWIKWYLEALGGSEAELAEFEWNIAEFEKNLQKYKGKGNPEVEALRKEAAAIRDELQAYRHN
17,22.5,SEQ ID NO 830 (designed binder) MGSWVLFKQELAWIKWYLEALGGSEAELAAFEWEIAAFEQRLQIYKGKGNPEVEALRKEAAAIRDELQAYRHN
18,19.6,SEQ ID NO 826 (designed binder) MGSWSLFKHRLANIKVYLEALGGSEAELADFETFIAYFEKDLQEYKGKGNPEVEALRKEAAAIRDELQAYRHN
